Ends that are not written are not given here.
Experiments:
[1] = Amyloid aggregation assay with thioflavin T (ThT); type: physicochemical; conditions: PBS pH 7.4, 37° C.
Procedure: Purified monoPEGylated human amylin of example 1 was re-suspended in DMSO and diluted to PBS pH 7.4 and allowed to incubate at 37° C. Samples were evaluated for amyloid aggregates by using the amyloid chromogenic probe thioflavin T (ThT).

[2] = Pharmacokinetics in swiss mice, plasma human amylin by ELISA; type: in vivo; conditions: 10 μg peptide in 100 uL saline, FIG. 6
Procedure: The pharmacokinetics of the monoPEGylated human amylin product were characterized in vivo in swiss mice. Mice were housed in a temperature-controlled room with a light-dark cycle of 12 h. Water and food were available ad libitum. Two groups were formed, control (free human amylin, not PEGylated) and PEGylated amylin. Animals received 100 uL of saline containing 10 μg of human amylin peptides, either free human amylin or purified monoPEGylated human amylin. Blood was collected retro-orbitally from mice (n=3 mice for each time interval), and the plasma was subjected to ELISA assay for human amylin as provided by the manufacturer (Millipore, Cat Number EZHA-52K—http://www.millipore.com/catalogue/item/ezha-52k).

RAMP2 = RAMP2 (Homo sapiens, UniProt O60895); test: RAMP-FITC fluorescence anisotropy coreceptor binding assay (RAMP2); conditions: fluorescence anisotropy of RAMP-FITC, duplicate assays, FIG. 3 and 4
Procedure: (§1) Purified monoPEGylated human amylin was assayed for RAMP2 and RAMP3 coreceptor binding interaction.
(§2) RAMP (receptor activity modifying protein) was labeled with fluorescein isothiocianate for 1 h at 4° C. in PBS ([…]) pH 7.4, and purified by size exclusion chromatography (SEC) in Sepharose G25 (agarose-based chromatography media, provided by the US company GE HealthCare) using the same buffer. Labelling was confirmed by UV absorbance measurements at A280 and A490, allowing estimation of coupling efficiency, relying on about 0.5 fluorescein/RAMP molecule.

RAMP3 = molecular target: T1, RAMP3 (Homo sapiens, UniProt O60896); test: RAMP-FITC fluorescence anisotropy coreceptor binding assay (RAMP3); conditions: fluorescence anisotropy of RAMP-FITC, duplicate assays, FIG. 3 and 4
T1 sequence (O60896 24-148): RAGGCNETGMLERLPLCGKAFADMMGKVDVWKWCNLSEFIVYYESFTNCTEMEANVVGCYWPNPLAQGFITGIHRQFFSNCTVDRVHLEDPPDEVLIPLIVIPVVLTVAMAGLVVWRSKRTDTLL
Procedure: as §1, §2

Sequence of RAMP2 (O60895 43-175, species assumed): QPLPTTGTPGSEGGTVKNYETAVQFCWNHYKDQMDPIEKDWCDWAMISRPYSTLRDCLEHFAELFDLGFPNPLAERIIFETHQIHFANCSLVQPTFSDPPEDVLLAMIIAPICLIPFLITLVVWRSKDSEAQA

Substance | amyloid aggregation (ThT) ([1]; 3 days, FIG. 5) | plasma decay / duration of stability in plasma [2] | apparent binding affinity for coreceptor RAMP2 (RAMP2) | apparent binding affinity for coreceptor RAMP3 (RAMP3) | amyloid aggregation (ThT) ([1]; day 7, FIG. 5)
free human amylin: 37-aminoacid amyloid polypeptide of the Langerhans islets, CAS RN: 106602-62-4; not PEGylated control (KCNTATCATQRLANFLVHSSNNFGAILSSTNVGSNTY; not fully specified (C-terminus, bridges); cysteine pairing not given here) | almost all free human amylin was aggregated in amyloid form | fast plasma decay | – | – | –
HEWL: unrelated protein hen egg white lisozyme used as a control for non-specific binding | – | – | non-specific binding | non-specific binding | –
monoPEGylated human amylin: monoconjugate of human amylin and mPEG, purified by C18 reversed phase, peak at 9 Kda (example 1) (KCNTATCATQRLANFLVHSSNNFGAILSSTNVGSNTY; not fully specified (C-terminus, bridges); cysteine pairing not given here; also: mono-mPEG conjugate, site not given here; UniProt P10997 34-70, looked up) | – | longer duration of stability in plasma | – | – | no signs of aggregation

From US20160331811A1, “NON-AGGLOMERATING BIOCONJUGATES OF AMYLIN-MIMETIC COMPOUNDS AND POLYETHYLENEGLYCOL” (UNIVERSIDADE FEDERAL DO RIO DE JANEIRO, priority 2013, published 2016)
